Legend:
[1] = molecular target: MUC1 on normal activated human T cells (human) (UniProt P15941); test: FACS on PHA-L-activated human PBMC, live αβTCR+ cells; gating scheme, donor not given
[2] = molecular target: MUC1 on normal activated human T cells (human) (UniProt P15941); test: FACS on PHA-L-activated human PBMC, live αβTCR+ cells, donor 3011029
[3] = molecular target: MUC1 on normal activated human T cells (human) (UniProt P15941); test: FACS on PHA-L-activated human PBMC, live αβTCR+ cells, donor 190980805C
[4] = molecular target: MUC1 on normal activated human T cells (human) (UniProt P15941); test: FACS on PHA-L-activated human PBMC, live αβTCR+ cells, donor 191180405C
[5] = molecular target: MUC1 on normal activated human T cells (human) (UniProt P15941); test: FACS on PHA-L-activated human PBMC, live αβTCR+ cells, donor 3009223

Chain of MUC1 on normal activated human T cells (human) (P15941 24-1255): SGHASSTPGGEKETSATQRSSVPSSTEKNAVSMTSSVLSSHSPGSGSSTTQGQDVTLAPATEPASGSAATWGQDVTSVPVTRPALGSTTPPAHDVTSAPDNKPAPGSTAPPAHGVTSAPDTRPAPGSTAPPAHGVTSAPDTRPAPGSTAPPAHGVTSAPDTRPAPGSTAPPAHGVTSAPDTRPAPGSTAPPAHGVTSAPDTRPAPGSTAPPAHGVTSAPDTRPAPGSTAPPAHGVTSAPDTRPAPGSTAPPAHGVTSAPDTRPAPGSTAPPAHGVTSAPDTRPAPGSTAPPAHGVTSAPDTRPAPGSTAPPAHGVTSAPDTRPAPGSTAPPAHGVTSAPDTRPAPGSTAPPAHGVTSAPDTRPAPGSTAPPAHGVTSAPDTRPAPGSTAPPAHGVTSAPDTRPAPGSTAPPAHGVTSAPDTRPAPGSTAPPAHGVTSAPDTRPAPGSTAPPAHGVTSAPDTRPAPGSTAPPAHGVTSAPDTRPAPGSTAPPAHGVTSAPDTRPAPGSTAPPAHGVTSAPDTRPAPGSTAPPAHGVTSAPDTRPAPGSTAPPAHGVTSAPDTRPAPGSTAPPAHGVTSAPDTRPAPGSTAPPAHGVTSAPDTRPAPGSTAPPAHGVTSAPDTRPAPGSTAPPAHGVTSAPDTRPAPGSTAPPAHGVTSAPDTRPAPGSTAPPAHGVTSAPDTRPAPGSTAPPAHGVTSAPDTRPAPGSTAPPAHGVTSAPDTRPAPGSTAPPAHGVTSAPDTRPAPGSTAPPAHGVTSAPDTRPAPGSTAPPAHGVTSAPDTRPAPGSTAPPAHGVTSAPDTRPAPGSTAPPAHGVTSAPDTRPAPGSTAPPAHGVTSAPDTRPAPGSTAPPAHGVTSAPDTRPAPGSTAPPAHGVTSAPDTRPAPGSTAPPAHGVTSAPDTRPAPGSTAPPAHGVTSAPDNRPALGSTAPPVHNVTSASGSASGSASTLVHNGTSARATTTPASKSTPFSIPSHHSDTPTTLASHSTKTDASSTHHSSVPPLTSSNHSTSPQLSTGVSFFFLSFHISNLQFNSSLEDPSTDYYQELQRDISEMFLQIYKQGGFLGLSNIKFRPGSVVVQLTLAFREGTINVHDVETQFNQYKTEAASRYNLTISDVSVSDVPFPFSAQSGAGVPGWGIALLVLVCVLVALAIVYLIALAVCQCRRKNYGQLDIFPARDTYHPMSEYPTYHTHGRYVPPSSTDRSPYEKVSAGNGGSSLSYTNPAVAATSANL

| Substance | percent of αβTCR+ T cells in the dashed MUC1+ box (antibody-bound T cells) [1] | percent of αβTCR+ T cells in the dashed MUC1+ box (antibody-bound T cells) [2] | percent of αβTCR+ T cells in the dashed MUC1+ box (antibody-bound T cells) [3] | percent of αβTCR+ T cells in the dashed MUC1+ box (antibody-bound T cells) [4] | percent of αβTCR+ T cells in the dashed MUC1+ box (antibody-bound T cells) [5] |
| --- | --- | --- | --- | --- | --- |
| HMFG1 (antibody) | 28.1% | 23.2% | 28.2% | 28.1% | 10% |
| Isotype (antibody) | 0.29% | 0.36% | 0.15% | 0.29% | 0.05% |
